Data published in patent US20120128626A1 (ALDERBIO, published 2012).

How the values were obtained:
Test in all cases: cell-based or functional assay
Cynomolgus monkey IL-6 = target: T1, Cynomolgus monkey IL-6 (cynomolgus monkey, UniProt P79341 28-212, limits assumed)
T1 sequence (looked up): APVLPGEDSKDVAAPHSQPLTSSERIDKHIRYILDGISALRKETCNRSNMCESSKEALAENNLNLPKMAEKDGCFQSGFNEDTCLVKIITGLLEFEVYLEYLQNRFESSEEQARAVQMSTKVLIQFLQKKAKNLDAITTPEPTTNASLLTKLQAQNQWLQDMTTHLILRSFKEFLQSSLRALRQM

Human IL-6 = Human IL-6 (human, UniProt P05231 30-212)
Rat IL-6 = target: T2, Rat IL-6 (rat, UniProt P20607 25-211)
T2 sequence (looked up): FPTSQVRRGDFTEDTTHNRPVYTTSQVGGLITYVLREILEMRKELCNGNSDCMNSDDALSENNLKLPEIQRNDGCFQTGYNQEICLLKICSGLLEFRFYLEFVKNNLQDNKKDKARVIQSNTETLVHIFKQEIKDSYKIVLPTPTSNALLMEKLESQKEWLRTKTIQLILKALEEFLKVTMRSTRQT

Mouse IL-6 = target: T3, Mouse IL-6 (mouse, UniProt P08505 25-211)
T3 sequence (looked up): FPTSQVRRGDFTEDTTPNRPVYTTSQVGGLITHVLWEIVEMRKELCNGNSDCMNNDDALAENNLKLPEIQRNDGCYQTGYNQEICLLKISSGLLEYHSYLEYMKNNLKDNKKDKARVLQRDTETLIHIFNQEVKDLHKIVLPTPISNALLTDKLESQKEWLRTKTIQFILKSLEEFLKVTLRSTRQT

IC50, inhibition of IL-6-stimulated T1165 cell proliferation (Cynomolgus monkey IL-6): 0.012 nM | IC50, inhibition of IL-6-stimulated T1165 cell proliferation (Human IL-6): 0.013 nM | IC50, inhibition of IL-6-stimulated T1165 cell proliferation (Rat IL-6): 2.06 nM | IC50, inhibition of IL-6-stimulated T1165 cell proliferation (Mouse IL-6): 1.84 nM
B1: Ab1 (antibody, human IgG1, kappa, N297A, V domains shown)
VH: EVQLVESGGGLVQPGGSLRLSCAASGFSLSNYYVTWVRQAPGKGLEWVGIIYGSDETAYATSAIGRFTISRDNSKNTLYLQMNSLRAEDTAVYYCARDDSSDWDAKFNLWGQGTLVTVSS
VL: AIQMTQSPSSLSASVGDRVTITCQASQSINNELSWYQQKPGKAPKLLIYRASTLASGVPSRFSGSGSGTDFTLTISSLQPDDFATYYCQQGYSLRNIDNAFGGGTKVEIKR
